B1: 22Mono5UQY (antibody, V domains shown)
VH: QVQLQESGPGLVKPSETLSLTCTASGYPFTNYWMHWVRQPPGKGLEWIGEINPSNGRTNYNEKFKSRATLSLDKSKNQASLNLDSVSAADTAIYYCARGFAYWGKGSTVTVSS
VL: AIQLTQSPSSLSASVGDRVTITCSASSSVSFMHWYQQKPGKAPKRWIYDTTKLASGVPSRFSGSGSGTDYTFTISSLQPEDIATYYCQQWNSHPLTFGPGTKVDIK
modifications: Flag-His tag, ACRO GPD-H52D3
B2: 22Mono3L7F (antibody, V domains shown)
VH: EVTLKESGPVLVKPTETLTLTCTASGYPFTNYWMHWVRQPPGKALEWIGEINPSNGRTNYNEKFKSRATLSLDKSKSQAVLTMTNMDPVDTATYYCARGFAYWGQGTLVTVSS
VL: EIVLTQSPATLSLSPGERATLSCSASSSVSFMHWYQQKPGQAPRRWIYDTTKLASGIPARFSGSGSGTDYTLTISSLEPEDFAVYYCQQWNSHPLTFGQGTKLEIK
modifications: Flag-His tag, ACRO GPD-H52D3
B3: 22Mono4DN4 (antibody, V domains shown)
VH: ELVQSGAEVKKPGSSVKVSCKASGYPFTNYWMHWVRQAPGQGLEWIGEINPSNGRTNYNEKFKSRATLTLDKSTSTAYMELSSLRSEDTAVYYCARGFAYWGQGTLVTVSS
VL: B2 VL with I57V, L103V
modifications: Flag-His tag, ACRO GPD-H52D3
B4: 22Mono5JO4 (antibody, V domains shown)
VH: QVQLVQSGAEVKKPGSSVKVSCRASGYPFTNYWMHWVRQAPGQGLEWIGEINPSNGRTNYNEKFKSRATLTLDKLTSTAYMELSSLTSEDTALYYCARGFAYWGQGTLVTVSS
VL: B2 VL with A9G, A59D, S76R, K102T, L103V
modifications: Flag-His tag, ACRO GPD-H52D3

Numbering of substitutions follows the chain as printed.

In this assay the target is T1, recombinant human GPRC5D-Flag-His (human, UniProt Q9NZD1).
T1 chain: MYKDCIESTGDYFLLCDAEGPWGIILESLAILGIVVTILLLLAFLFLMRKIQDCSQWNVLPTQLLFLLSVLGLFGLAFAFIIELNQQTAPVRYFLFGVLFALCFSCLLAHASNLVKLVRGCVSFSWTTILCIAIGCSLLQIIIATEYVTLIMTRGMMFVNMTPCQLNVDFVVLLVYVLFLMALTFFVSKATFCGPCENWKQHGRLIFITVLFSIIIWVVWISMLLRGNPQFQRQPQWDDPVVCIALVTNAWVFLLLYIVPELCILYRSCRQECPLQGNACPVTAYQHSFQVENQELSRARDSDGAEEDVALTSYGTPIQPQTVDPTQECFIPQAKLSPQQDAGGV
Put plainly: BLI.
Regarding B1, the dissociation constant Kd was found to be 5.67 nM.
In the case of B2, the Kd is 25.6 nM.
In the case of B3 it was 16.9 nM.
As to B4, the Kd came out at 0.787 nM.

Values taken from patent US20260285972 (published 2026).
